# Data taken from patent US20230340054A1 (published 2023).
# Key:
# [1] = target: F906-(G2S1)4-IL2(E62A)-(G2S1)6-HLE (IL-2mut); experiment: BLI
# [2] = target: F906-(G2S1)4-IL2-(G2S1)6-HLE (IL2wt); experiment: BLI
binder,measurement,setting,value
"CD122 (receptor, biotinylated (site not stated)) AVNGTSQFTCFYNSRANISCVWSQDGALQDTSCQVHAWPDRRRWNQTCELLPVSQASWACNLILGAPDSQKLTTVDIVTLRVLCREGVRWRVMAIQDFKPFENLRLMAPISLQVVHVETHRCNISWEISQASHYFERHLEFEARTLSPGHTWEEAPLLTLKQKQEWICLETLTPDTQYEFQVRVKPLQGEFTTWSPWSQPLAFRTKPAALGKD",Kd,[1],~40 nM
same,Kd,[2],~40 nM
